Reference: US20230212319A1, “NOVEL ANTIGEN BINDING DOMAINS AND SYNTHETIC ANTIGEN RECEPTORS INCORPORATING THE SAME” (University of Southern California, priority 2020, published 2023)

B1: 22076 (protein)
chain: MALPVTALLLPLALLLHAARPQLQLQESGPGLVKPSETLSLTCTVSGDSISSGDYYWGWIRQPPGKGLEWIGHIYYSGVTYYNPSLKSRVTISVDTSRNQFSLKLSSVTAADTAVYYCTREDSSNWRSRGQGTLVTVSSLESGGGGSFEQVQLVESGGGLVQPGGSLRLSCAASGFTFTNHAMSWVRQAPGKGLELVSSISGNGRTTYYADSVKGRFTISRDISKNTLDLQMNSLRAEDTAVYYCAKDGGETLVDSRGQGTLVTVSSTRASTKGPSVFPLAPSSKSTSGGTAALGCLVKDYFPEPVTVSWNSGALTSGVHTFPAVLQSSGLYSLSSVVTVPSSSLGTQTYICNVNHKPSNTKVDKRVEPKSCIPEDTFFPSPESSCDVKLVEKSFETDTNLNFQNLSVIGFRILLLKVAGFNLLMTLRLWSSRAKRSGSGVKQTLNFDLLKLAGDVESNPGPSRGHMTEYKPTVRLATRDDVPRAVRTLAAAFADYPATRHTVDPDRHIERVTELQELFLTRVGLDIGKVWVADDGAAVAVWTTPESVEAGAVFAEIGPRMAELSGSRLAAQQQMEGLLAPHRPKEPAWFLATVGVSPDHQGKGLGSAVVLPGVEAAERAGVPAFLETSAPRNLPFYERLGFTVTADVEVPEGPRTWCMTRKPGA
B2: 22048 (protein)
chain: MALPVTALLLPLALLLHAARPQVQLVESGGGLVQPGGSLRLSCAASGFTFTNHAMSWVRQAPGKGLELVSSISGNGRTTYYADSVKGRFTISRDISKNTLDLQMNSLRAEDTAVYYCAKDGGETLVDSRGQGTLVTVSSLEGQPKANPTVTLFPPSSEELQANKATLVCLISDFYPGAVTVAWKADGSPVKAGVETTKPSKQSNNKYAASSYLSLTPEQWKSHRSYSCQVTHEGSTVEKTVAPTECSPIKTDVITMDPKDNCSKDANDTLLLQLTNTSAYYMYLLLLLKSVVYFAIITCCLLRRTAFCCNGEKSRAKRSGSGATNFSLLKQAGDVEENPGPTSMDWIWRILFLVGAATGAHSFEEVQLLESGGGLVQPGGSLRLSCAASGFTFSSYAMSWVRQAPGKGLEWVSSISGSGDYIYYADSVKGRFTISRDISKNTLYLQMNSLRAEDTAVYYCAKEGTGANSSLADYRGQGTLVTVSSTRASTKGPSVFPLAPSSKSTSGGTAALGCLVKDYFPEPVTVSWNSGALTSGVHTFPAVLQSSGLYSLSSVVTVPSSSLGTQTYICNVNHKPSNTKVDKRVEPKSCEVKTDSTDHVKPKETENTKQPSKSCHKPKAIVHTEKVNMMSLTVLGLRMLFAKTVAVNFLLTAKLFFLRAKRSGSGVKQTLNFDLLKLAGDVESNPGPSRGHMTEYKPTVRLATRDDVPRAVRTLAAAFADYPATRHTVDPDRHIERVTELQELFLTRVGLDIGKVWVADDGAAVAVWTTPESVEAGAVFAEIGPRMAELSGSRLAAQQQMEGLLAPHRPKEPAWFLATVGVSPDHQGKGLGSAVVLPGVEAAERAGVPAFLETSAPRNLPFYERLGFTVTADVEVPEGPRTWCMTRKPGA
B3: 22050 (protein)
chain: B2 chain
B4: 22073 (protein)
chain: MALPVTALLLPLALLLHAARPQLQLQESGPGLVKPSETLSLTCTVSGDSISSGDYYWGWIRQPPGKGLEWIGHIYYSGVTYYNPSLKSRVTISVDTSRNQFSLKLSSVTAADTAVYYCTREDSSNWRSRGQGTLVTVSSLEGQPKANPTVTLFPPSSEELQANKATLVCLISDFYPGAVTVAWKADGSPVKAGVETTKPSKQSNNKYAASSYLSLTPEQWKSHRSYSCQVTHEGSTVEKTVAPTECSGRADCGFTSESYQQGVLSATILYEILLGKATLYAVLVSALVLMAMVKRKDSRGRAKRSGSGATNFSLLKQAGDVEENPGPTSMDWIWRILFLVGAATGAHSFEVQLLESGGGLIQPGGSLRLSCAASGFTFSSHAMTWVRQAPGKGLEWVSAISGSGDYTHYADSVKGRFTISRDNSKNTVYLQMNSLRAEDSAVYYCAKDEDGGSLLGHRGQGTLVTVSSTRIQNPDPAVYQLRDSKSSDKSVCLFTDFDSQTNVSQSKDSDVYITDKCVLDMRSMDFKSNSAVAWSNKSDFACANAFNNSIIPEDTFFPSPESSCDVKLVEKSFETDTNLNFQNLSVIGFRILLLKVAGFNLLMTLRLWSSRAKRSGSGVKQTLNFDLLKLAGDVESNPGPSRGHMTEYKPTVRLATRDDVPRAVRTLAAAFADYPATRHTVDPDRHIERVTELQELFLTRVGLDIGKVWVADDGAAVAVWTTPESVEAGAVFAEIGPRMAELSGSRLAAQQQMEGLLAPHRPKEPAWFLATVGVSPDHQGKGLGSAVVLPGVEAAERAGVPAFLETSAPRNLPFYERLGFTVTADVEVPEGPRTWCMTRKPGA
B5: 22034 (protein)
chain: MALPVTALLLPLALLLHAARPQLQLQESGPGLVKPSETLSLTCTVSGDSISSGDYYWGWIRQPPGKGLEWIGHIYYSGVTYYNPSLKSRVTISVDTSRNQFSLKLSSVTAADTAVYYCTREDSSNWRSRGQGTLVTVSSLESGGGGSFEEVQLLESGGGLVQPGGSLRLSCAASGFTFSSYAMSWVRQAPGKGLEWVSSISGSGDYIYYADSVKGRFTISRDISKNTLYLQMNSLRAEDTAVYYCAKEGTGANSSLADYRGQGTLVTVSSTREQKLISEEDGSGIQNPDPAVYQLRDSKSSDKSVCLFTDFDSQTNVSQSKDSDVYITDKCVLDMRSMDFKSNSAVAWSNKSDFACANAFNNSIIPEDTFFPSSDVPCDVKLVEKSFETDTNLNFQNLSVIGFRILLLKVAGFNLLMTLRLWSSRAKRSGSGVKQTLNFDLLKLAGDVESNPGPSRGRMAKPLSQEESTLIERATATINSIPISEDYSVASAALSSDGRIFTGVNVYHFTGGPCAELVVLGTAAAAAAGNLTCIVAIGNENRGILSPCGRCRQVLLDLHPGIKAIVKDSDGQPTAVGIRELLPSGYVWEG
B6: 22041 (protein)
chain: MALPVTALLLPLALLLHAARPQLQLQESGPGLVKPSETLSLTCTVSGDSISSGDYYWGWIRQPPGKGLEWIGHIYYSGVTYYNPSLKSRVTISVDTSRNQFSLKLSSVTAADTAVYYCTREDSSNWRSRGQGTLVTVSSLEGSGRADCGFTSESYQQGVLSATILYEILLGKATLYAVLVSALVLMAMVKRKDSRGRAKRSGSGATNFSLLKQAGDVEENPGPTSMDWIWRILFLVGAATGAHSFEVQLLESGGGLIQPGGSLRLSCAASGFTFSSHAMTWVRQAPGKGLEWVSAISGSGDYTHYADSVKGRFTISRDNSKNTVYLQMNSLRAEDSAVYYCAKDEDGGSLLGHRGQGTLVTVSSTRDKTHTCPPCPAIPEDTFFPSPESSCDVKLVEKSFETDTNLNFQNLSVIGFRILLLKVAGFNLLMTLRLWSSRAKRSGSGVKQTLNFDLLKLAGDVESNPGPSRGHMTEYKPTVRLATRDDVPRAVRTLAAAFADYPATRHTVDPDRHIERVTELQELFLTRVGLDIGKVWVADDGAAVAVWTTPESVEAGAVFAEIGPRMAELSGSRLAAQQQMEGLLAPHRPKEPAWFLATVGVSPDHQGKGLGSAVVLPGVEAAERAGVPAFLETSAPRNLPFYERLGFTVTADVEVPEGPRTWCMTRKPGA
B7: 22052 (protein)
chain: MALPVTALLLPLALLLHAARPQLQLQESGPGLVKPSETLSLTCTVSGDSISSGDYYWGWIRQPPGKGLEWIGHIYYSGVTYYNPSLKSRVTISVDTSRNQFSLKLSSVTAADTAVYYCTREDSSNWRSRGQGTLVTVSSLEDKTHTCPPCPAEVKTDSTDHVKPKETENTKQPSKSCHKPKAIVHTEKVNMMSLTVLGLRMLFAKTVAVNFLLTAKLFFLRAKRSGSGVKQTLNFDLLKLAGDVESNPGPTSMDWIWRILFLVGAATGAHSFEVQLLESGGGLIQPGGSLRLSCAASGFTFSSHAMTWVRQAPGKGLEWVSAISGSGDYTHYADSVKGRFTISRDNSKNTVYLQMNSLRAEDSAVYYCAKDEDGGSLLGHRGQGTLVTVSSTRDKTHTCPPCPAIPEDTFFPSPESSCDVKLVEKSFETDTNLNFQNLSVIGFRILLLKVAGFNLLMTLRLWSSRAKRSGSGVKQTLNFDLLKLAGDVESNPGPSRGHMTEYKPTVRLATRDDVPRAVRTLAAAFADYPATRHTVDPDRHIERVTELQELFLTRVGLDIGKVWVADDGAAVAVWTTPESVEAGAVFAEIGPRMAELSGSRLAAQQQMEGLLAPHRPKEPAWFLATVGVSPDHQGKGLGSAVVLPGVEAAERAGVPAFLETSAPRNLPFYERLGFTVTADVEVPEGPRTWCMTRKPGA
B8: 22051 (protein)
chain: MALPVTALLLPLALLLHAARPQLQLQESGPGLVKPSETLSLTCTVSGDSISSGDYYWGWIRQPPGKGLEWIGHIYYSGVTYYNPSLKSRVTISVDTSRNQFSLKLSSVTAADTAVYYCTREDSSNWRSRGQGTLVTVSSLEDKTHTCPPCPAGRADCGFTSESYQQGVLSATILYEILLGKATLYAVLVSALVLMAMVKRKDSRGRAKRSGSGATNFSLLKQAGDVEENPGPTSMDWIWRILFLVGAATGAHSFEVQLLESGGGLIQPGGSLRLSCAASGFTFSSHAMTWVRQAPGKGLEWVSAISGSGDYTHYADSVKGRFTISRDNSKNTVYLQMNSLRAEDSAVYYCAKDEDGGSLLGHRGQGTLVTVSSTRDKTHTCPPCPAEVKTDSTDHVKPKETENTKQPSKSCHKPKAIVHTEKVNMMSLTVLGLRMLFAKTVAVNFLLTAKLFFL

Tested on: RAJI cells
Test: JNG assay, co-culture with RAJI cells
Format: cell-based
Conditions: JNG cells expressing construct, co-culture with Raji
How it was run: (§1)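 Read-out is NFAT-driven GFP measured by flow cytometry after ~4–18 h co-culture of SAR-expressing JNG cells with target cells (E:T about 1:2). SARs were introduced by lentiviral spinfection and selected with puromycin or blasticidin when possible; scores (+/- to 5+ ≈ 5–50% GFP+) are relative to parental JNG cells.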

Molecule | NFAT-GFP ASSAY: Raji
B1 | +/- (refer to approximately 5%, 10%, 20%, 30%, 40% and 50% GFP positive cells)
B2 | + (refer to approximately 5%, 10%, 20%, 30%, 40% and 50% GFP positive cells)
B3 | + (refer to approximately 5%, 10%, 20%, 30%, 40% and 50% GFP positive cells)
B4 | +/- (refer to approximately 5%, 10%, 20%, 30%, 40% and 50% GFP positive cells)
B5 | +/- (refer to approximately 5%, 10%, 20%, 30%, 40% and 50% GFP positive cells)
B6 | + (refer to approximately 5%, 10%, 20%, 30%, 40% and 50% GFP positive cells)
B7 | +/- (refer to approximately 5%, 10%, 20%, 30%, 40% and 50% GFP positive cells)
B8 | +/- (refer to approximately 5%, 10%, 20%, 30%, 40% and 50% GFP positive cells)

Tested on: L363 cells
Test: JNG assay, co-culture with L363 cells
Format: cell-based
Conditions: co-culture with L363
How it was run: as §1

Molecule | NFAT-GFP ASSAY: L363
B1 | + (refer to approximately 5%, 10%, 20%, 30%, 40% and 50% GFP positive cells)
B2 | +/- (refer to approximately 5%, 10%, 20%, 30%, 40% and 50% GFP positive cells)
B3 | +/- (refer to approximately 5%, 10%, 20%, 30%, 40% and 50% GFP positive cells)
B4 | +/- (refer to approximately 5%, 10%, 20%, 30%, 40% and 50% GFP positive cells)
B5 | +/- (refer to approximately 5%, 10%, 20%, 30%, 40% and 50% GFP positive cells)
B6 | + (refer to approximately 5%, 10%, 20%, 30%, 40% and 50% GFP positive cells)
B7 | +/- (refer to approximately 5%, 10%, 20%, 30%, 40% and 50% GFP positive cells)
B8 | +/- (refer to approximately 5%, 10%, 20%, 30%, 40% and 50% GFP positive cells)
